From patent US8440629B2, “Cyclic receptor-associated protein (RAP) peptides” (Raptor Pharmaceuticals Inc., priority 2007, dated 2013)

Columns and labels:
CR proteins = assay: Solid phase binding assay in presence of 10 mM EGTA; design: species or system human
Method: (§1) Purified, refolded CR protein (1 μg) was bound to Nunc Maxisorp™ 96-well plates in TBS pH 8 supplemented with 5 mM CaCl2 (TBSC) overnight at 4° C. Wells were washed with TBSC and then blocked with TBSC containing 2% bovine serum albumin (BSA). RAP ligands were then incubated with the immobilized receptor at a range of concentrations for 2 hours in the above blocking buffer supplemented with 0.05% Tween-20 at room temperature. Control wells contained no added ligand. As an additional control, to determine whether the absence of calcium affected binding, 10 mM EGTA was included in the incubation medium for some samples. Wells were washed with TBSTC and bound ligands detected with polyclonal anti-RAP (BP41/42, 1:1,000, BioMarin). Excess primary antibody was removed and wells washed before incubation with the secondary antibody, HRP-conjugated goat anti rabbit IgG (Bio-Rad). After washing, TMB substrate solutions (Bio-Rad) were added to detect HRP. Color development was stopped with 1N HCl. Absorption at 450 nm was measured with a microplate spectrophotometer (Molecular Devices). Data were plotted and Kd values derived by non-linear regression with the assumption of single-site binding (GraphPad Prism).
Next, the binding of RAP d3 and MegaRAP1 d3 proteins to LRP1 CR3-5 and LRP2 CR89 was assessed. […]

[1] = biological target: T1, LRP2 CR89 Y1042W V1047D (WDWR) (Homo sapiens, UniProt P98164, V1048D/Y1043W); assay: Solid phase binding assay, LRP2 CR89 mutant
T1 construct: two CR pairs from LRP2 (CR89, CR3435); made in house; host or cells: E. coli BL21(DE3) CodonPlus-RIPL, pET30(+)a
Source text: (§2) Each amplified fragment was sequentially digested with BamHI and HindIII and then ligated into similarly digested pET30(+)a. The resulting plasmids encode proteins consisting of N-terminal hexahistidine and S-peptides fused to the CR fragment. Ligation reactions were transformed into XL-Blue MRF′ (Stratagene) by electroporation and plasmids isolated from single colonies. Three mutations, […], V1047D and R1088D, were introduced into the LRP2 CR89 expression plasmid both singly and in combination using Stratagene QuikChange II XL reagents and the primers: […]
as §1
(§3) One premise of this work was that amino acids at A, C, A′ and C′ within the calcium-binding loops of a CR pair were key determinants of binding affinity for RAP and would be similarly important for binding of RAP variants. To test this idea, mutant LRP2 CR89 were prepared in which the native, non-canonical residues at these positions were sequentially substituted with the non-native, canonical residues. As defined above, the A, C, A′, C′ string for LRP2 CR89 is YVWR. Mutants included LRP2 CR89 Y1042W (WVWR), LRP2 CR89 V1047D (YDWR), LRP2 CR89 R1088D (YVWD), LRP2 CR89 V1047D R1088D (YDWD), LRP2 CR89 Y1042W V1047D R1088D (WDWD), LRP2 CR89 Y1042W V1047D (WDWR), LRP2 CR89 Y1042W R1088D (WVWD). Binding to both RAP d3 and MegaRAP1 d3 were measured for each LRP2 CR89 mutant by solid-phase assay. Only the YVWD mutant retained significant binding to MegaRAP1 d3, with an approximate 2-fold loss of affinity relative to LRP2 CR89 (FIG. 6 and Table 3). […] The A′ position in LRP2 CR89 is a tryptophan, the canonical residue for wild-type RAP d3 binding, and was not mutated in our studies.

LRP2 CR89 V1047D (YDWR) = biological target: T2, LRP2 CR89 V1047D (YDWR) (Homo sapiens, UniProt P98164, V1048D); assay: Solid phase binding assay, LRP2 CR89 mutant
T2 construct: two CR pairs from LRP2 (CR89, CR3435); made in house; host or cells: E. coli BL21(DE3) CodonPlus-RIPL, pET30(+)a
T2 sequence (P98164 1022-1105 V1048D limits assumed): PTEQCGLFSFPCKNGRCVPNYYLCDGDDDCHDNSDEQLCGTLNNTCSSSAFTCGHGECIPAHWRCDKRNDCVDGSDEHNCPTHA
Source text: as §2, §1, §3

[2] = biological target: T3, LRP2 CR89 V1047D R1088D (YDWD) (Homo sapiens, UniProt P98164, R1089D/V1048D); assay: Solid phase binding assay, LRP2 CR89 mutant
T3 construct: two CR pairs from LRP2 (CR89, CR3435); made in house; host or cells: E. coli BL21(DE3) CodonPlus-RIPL, pET30(+)a
T3 sequence (P98164 1022-1105 V1048D/R1089D limits assumed): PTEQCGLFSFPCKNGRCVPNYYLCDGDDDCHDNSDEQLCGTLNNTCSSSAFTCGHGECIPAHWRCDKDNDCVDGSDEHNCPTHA
Source text: as §2, §1, §3

LRP2 CR89 Y1042W (WVWR) = biological target: T4, LRP2 CR89 Y1042W (WVWR) (Homo sapiens, UniProt P98164, Y1043W); assay: Solid phase binding assay, LRP2 CR89 mutant
T4 construct: two CR pairs from LRP2 (CR89, CR3435); made in house; host or cells: E. coli BL21(DE3) CodonPlus-RIPL, pET30(+)a
T4 sequence (P98164 1025-1102 Y1043W): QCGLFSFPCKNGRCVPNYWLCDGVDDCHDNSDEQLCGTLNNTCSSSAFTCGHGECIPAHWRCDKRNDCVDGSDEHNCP
Source text: as §2, §1, §3

LRP2 CR89 R1088D (YVWD) = biological target: T5, LRP2 CR89 R1088D (YVWD) (Homo sapiens, UniProt P98164, R1089D); assay: Solid phase binding assay, LRP2 CR89 mutant
T5 construct: two CR pairs from LRP2 (CR89, CR3435); made in house; host or cells: E. coli BL21(DE3) CodonPlus-RIPL, pET30(+)a
Source text: as §2, §1, §3

T1 sequence (P98164 1025-1102 Y1043W/V1048D): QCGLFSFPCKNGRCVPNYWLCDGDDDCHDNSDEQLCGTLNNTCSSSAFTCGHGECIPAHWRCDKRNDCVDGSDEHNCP
T5 sequence (P98164 1022-1105 R1089D limits assumed): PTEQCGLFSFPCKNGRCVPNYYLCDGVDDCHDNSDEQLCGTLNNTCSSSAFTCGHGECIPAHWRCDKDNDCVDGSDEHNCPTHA

B1: RAP d3: third domain of human RAP, amino acids 201-319 of mature RAP, bacterially expressed with hexahistidine and S-peptide tags (SEQ ID NO: 92) (protein, listed as Homo sapiens)
chain: LDRLRRVSHQGYSTEAEFEEPRVIDLWDLEQSANLTDKELEAFREELKHFEAKIEKHNHYQKQLEIAHEKLRHAESVGDGERVSRSREKHALLEGRTKELGYTVKKHLQDLSGRISRAR
modifications: hexahistidine and S-peptide tags
effect of 10 mM EGTA on binding to CR proteins (CR proteins): prevented binding

B2: MegaRAP1 d3: d3 of RAP variant selected on LRP2 CR89: S213T, E217K, H249Y, E251K, K256A, K270E (SEQ ID NO: 93) (protein, listed as Homo sapiens)
chain: LDRLRRVSHQGYSTEAEFEEPRVIDLWDLEQSANLTDKELEAFREELKHFKAKIEAHNHYQKQLEIAHEDLRHAESVGDGERVSRSREKHALLEGRTKELGYTVKKHLQDLSGRISRAR
effect of 10 mM EGTA on binding to CR proteins (CR proteins): prevented binding
binding (in words) [1]: failed to bind measurably
binding (in words) (LRP2 CR89 V1047D (YDWR)): failed to bind measurably
binding (in words) [2]: failed to bind measurably
binding (in words) (LRP2 CR89 Y1042W (WVWR)): prevent binding
loss of affinity relative to LRP2 CR89 (LRP2 CR89 R1088D (YVWD)): ~2 fold
